{
  "source": "patent US20070287170A1",
  "about": "(Merck KGaA, published 2007)",
  "binders": {"B1": {"name": "DI-KS(AG(f0) SEED)-IL-2 heavy chain with DI-KS light chain (antibody)", "heavy": "not shown", "light": "QIVLTQSPASLAVSPGQRATITCSASSSVSYILWYQQKPGQPPKPWIFDTSNLASGFPSRFSGSGSGTSYTLTINSLEAEDAATYYCHQRSGYPYTFGGGTKVEIKRTVAAPSVFIFPPSDEQLKSGTASVVCLLNNFYPREAKVQWKVDNALQSGNSQESVTEQDSKDSTYSLSSTLTLSKADYEKHKVYACEVTHQGLSSPVTKSFNRGEC", "notes": "also called heavy chain-IL2"}},
  "key": {"[1]": {"target": "T1, Fc(AG(f0) SEED)-IL2", "T1 construct": "also called \"Full\" AG SEED-IL-2; Fc(AG SEED)-IL2", "assay": "co-expression in NS/0 cells, SDS-PAGE (figure legend)"}, "[2]": {"target": "the molecule itself", "assay": "co-expression with Fc(AG(f0) SEED)-IL2 in NS/0 cells, non-reducing SDS-PAGE (homodimer)"}, "[3]": {"target": "T2, Fc(AG(s0) SEED)-IL2 (human)", "T2 construct": "It was put together from the cloning scheme (Ngo MIV/Sma I fragment exchange in the pdCs Fc-IL2 vector); also called \"Surface\" AG SEED-IL-2; AG SURF", "assay": "co-expression in NS/0 cells, SDS-PAGE (figure legend)"}, "[4]": {"target": "the molecule itself", "assay": "co-expression with Fc(AG(s0) SEED)-IL2 in NS/0 cells, non-reducing SDS-PAGE (homodimer)"}, "[5]": {"target": "the molecule itself", "assay": "co-expression in mammalian cells, non-reducing SDS-PAGE (homodimer)"}, "[6]": {"target": "B1", "assay": "co-expression in mammalian cells, non-reducing SDS-PAGE (heterodimer)"}, "[7]": {"target": "the molecule itself", "assay": "co-expression of both heavy chains and the light chain in mammalian cells, non-reducing SDS-PAGE"}},
  "data": [
    {"binder": "Fc(GA(f0) SEED) (designed binder, also called \"Full\" GA SEED; Fc(GA SEED)) EPKSSDKTHTCPPCPAPELLGGPSVFLFPPKPKDTLMISRTPEVTCVVVDVSHEDPEVKFNWYVDGVEVHNAKTKPREEQYNSTYRVVSVLTVLHQDWLNGKEYKCKVSNKALPAPIEKTISKAKGQPREPQVYTLPPPSEELALNELVTLTCLVKGFYPSDIAVEWLQGSQELPREKYLTWAPVLDSDGSFFLYSILRVAAEDWKKGDTFSCSVMHEALHNHYTQKSLDRSPGK", "values": [
      {"measurement": "binding result", "setting": "[1]", "value": "binds"},
      {"measurement": "binding result", "setting": "[2]", "value": "binds"}
    ]},
    {"binder": "Fc(GA(s0) SEED) (designed binder, It was put together from the cloning scheme: the Ngo MIV/Sma I fragment for the SEED replaces that of CH3 in the pdCs Fc vector; also called \"Surface\" GA SEED; GA SURF) EPKSSDKTHTCPPCPAPELLGGPSVFLFPPKPKDTLMISRTPEVTCVVVDVSHEDPEVKFNWYVDGVEVHNAKTKPREEQYNSTYRVVSVLTVLHQDWLNGKEYKCKVSNKALPAPIEKTISKAKGQPREPQVYTLPPPSEELALNNQVTLTCLVKGFYPSDIAVEWESNGQPEPREKYLTWAPVLDSDGSFFLYSILRVDASRWQQGNVFSCSVMHEALHNHYTQKSLSLSPGK", "values": [
      {"measurement": "binding result", "setting": "[3]", "value": "binds"},
      {"measurement": "binding result", "setting": "[4]", "value": "binds"}
    ]},
    {"binder": "DI-KS(GA(f0) SEED) heavy chain with DI-KS light chain (antibody, It has anti-EpCAM V regions, human IgG1 CH1 and CH2, and human Ckappa; also called antibody heavy chain (no IL-2)) heavy: QIQLVQSGPELKKPGSSVKISCKASGYTFTNYGMNWVRQAPGKGLKWMGWINTYTGEPTYADDFKGRFTITAETSTSTLYLQLNNLRSEDTATYFCVRFISKGDYWGQGTTVTVSSASTKGPSVFPLAPSSKSTSGGTAALGCLVKDYFPEPVTVSWNSGALTSGVHTFPAVLQSSGLYSLSSVVTVPSSSLGTQTYICNVNHKPSNTKVDKRVEPKSCDKTHTCPPCPAPELLGGPSVFLFPPKPKDTLMISRTPEVTCVVVDVSHEDPEVKFNWYVDGVEVHNAKTKPREEQYNSTYRVVSVLTVLHQDWLNGKEYKCKVSNKALPAPIEKTISKAKGQPREPQVYTLPPPSEELALNELVTLTCLVKGFYPSDIAVEWLQGSQELPREKYLTWAPVLDSDGSFFLYSILRVAAEDWKKGDTFSCSVMHEALHNHYTQKSLDRSPGK light: QIVLTQSPASLAVSPGQRATITCSASSSVSYILWYQQKPGQPPKPWIFDTSNLASGFPSRFSGSGSGTSYTLTINSLEAEDAATYYCHQRSGYPYTFGGGTKVEIKRTVAAPSVFIFPPSDEQLKSGTASVVCLLNNFYPREAKVQWKVDNALQSGNSQESVTEQDSKDSTYSLSSTLTLSKADYEKHKVYACEVTHQGLSSPVTKSFNRGEC", "values": [
      {"measurement": "binding result", "setting": "[5]", "value": "binds"},
      {"measurement": "binding result", "setting": "[6]", "value": "binds"}
    ]},
    {"binder": "B1", "values": [
      {"measurement": "binding result", "setting": "[7]", "value": "no binding"}
    ]}
  ]
}
